To fix the notation:
B1: PTPN9 (parent)
chain: TQHLPRECLPENLGGYVKIDLATW

Data on 94 variants can be found in the supplement of paper PMC10567573.
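Also: lentivirally expressed fusions sorted by FACS into six bins by GFP to DsRed ratio, PSI derived from sequencing read proportions per bin multiplied by bin number.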

Variants of B1 are the subject of the data set. Kind of data set: protein stability index of a GFP-peptide fusion (GPS, HEK-293T) (PSI 1-6); higher = more stable. To be noted: c terminus: a fixed tail appended.
As for TQHLPLECLPENLGGYVKIDLATW [R6L], the protein stability index came out at 1.49. The value for TQHLPGECLPENLGGYVKIDLATW [R6G] was 2.51; that for TQHLPVECLPENLGGYVKIDLATW [R6V] was 2.26. With TQHLPHECLPENLGGYVKIDLATW [R6H] the figure was 1.63. The value for TQHLPAECLPENLGGYVKIDLATW [R6A] was 2.08. As to TQHLPNECLPENLGGYVKIDLATW [R6N], the protein stability index was 1.98. Regarding TQHLPKECLPENLGGYVKIDLATW [R6K], the protein stability index amounted to 2.2. With TQHLPFECLPENLGGYVKIDLATW [R6F] the figure was 1.81.

On to TQHLPMECLPENLGGYVKIDLATW [R6M], for which the protein stability index was determined as 2.16. For TQHLPSECLPENLGGYVKIDLATW [R6S], the protein stability index is 2.18. With TQHLPTECLPENLGGYVKIDLATW [R6T] the figure was 2.2. With TQHLPPECLPENLGGYVKIDLATW [R6P] the figure was 2.24; with TQHLPCECLPENLGGYVKIDLATW [R6C], 1.69; with TQHLPIECLPENLGGYVKIDLATW [R6I], 1.99.

Consider TQHLPWECLPENLGGYVKIDLATW [R6W], for which the protein stability index stood at 1.57. TQHLPDECLPENLGGYVKIDLATW [R6D]: the protein stability index came to 2.52. With TQHLPQECLPENLGGYVKIDLATW [R6Q] the figure was 2.31; with TQHLPEECLPENLGGYVKIDLATW [R6E], 2.27; with TQHLPYECLPENLGGYVKIDLATW [R6Y], 1.69. The value for TQHLPRESLPENLGGYVKIDLATW [C8S] was 2.04. With TQHLPREGLPENLGGYVKIDLATW [C8G] the figure was 1.78.

Turning to TQHLPREWLPENLGGYVKIDLATW [C8W], the protein stability index was 1.72. With TQHLPREMLPENLGGYVKIDLATW [C8M] the figure was 1.81; with TQHLPRELLPENLGGYVKIDLATW [C8L], 1.8; with TQHLPREELPENLGGYVKIDLATW [C8E], 2.24. The value for TQHLPRETLPENLGGYVKIDLATW [C8T] was 2.19. The value for TQHLPREVLPENLGGYVKIDLATW [C8V] was 2.02. Turning to TQHLPREQLPENLGGYVKIDLATW [C8Q], the protein stability index came out at 2.29.

Turning to TQHLPREILPENLGGYVKIDLATW [C8I], the protein stability index was determined as 1.7.

For the variant TQHLPRENLPENLGGYVKIDLATW [C8N], the protein stability index is 2.15. The value for TQHLPREDLPENLGGYVKIDLATW [C8D] was 2.48. The value for TQHLPREALPENLGGYVKIDLATW [C8A] was 2.16.

Turning to TQHLPREYLPENLGGYVKIDLATW [C8Y], the protein stability index was 2.11.

On to TQHLPREFLPENLGGYVKIDLATW [C8F], for which the protein stability index amounted to 2.3.

With TQHLPREKLPENLGGYVKIDLATW [C8K], the protein stability index worked out at 1.93. The value for TQHLPRERLPENLGGYVKIDLATW [C8R] was 1.69; that for TQHLPREHLPENLGGYVKIDLATW [C8H] was 2.56; that for TQHLPREPLPENLGGYVKIDLATW [C8P] was 2.16. As for TQHLPRECLPRNLGGYVKIDLATW [E11R], the protein stability index came out at 1.62.

Turning to TQHLPRECLPTNLGGYVKIDLATW [E11T], the protein stability index is 1.45. TQHLPRECLPVNLGGYVKIDLATW [E11V]: the protein stability index worked out at 1.58.

On to TQHLPRECLPQNLGGYVKIDLATW [E11Q], for which the protein stability index was 1.71. On to TQHLPRECLPMNLGGYVKIDLATW [E11M], for which the protein stability index came to 2.46. The value for TQHLPRECLPFNLGGYVKIDLATW [E11F] was 1.8. With TQHLPRECLPINLGGYVKIDLATW [E11I], the protein stability index turned out to be 1.89.

With TQHLPRECLPGNLGGYVKIDLATW [E11G], the protein stability index stood at 1.41. With TQHLPRECLPCNLGGYVKIDLATW [E11C] the figure was 1.52. As to TQHLPRECLPLNLGGYVKIDLATW [E11L], the protein stability index worked out at 2.73. The value for TQHLPRECLPANLGGYVKIDLATW [E11A] was 1.97; that for TQHLPRECLPNNLGGYVKIDLATW [E11N] was 1.41. With TQHLPRECLPSNLGGYVKIDLATW [E11S], the protein stability index amounted to 2.04. With TQHLPRECLPKNLGGYVKIDLATW [E11K] the figure was 1.79; with TQHLPRECLPYNLGGYVKIDLATW [E11Y], 1.77; with TQHLPRECLPWNLGGYVKIDLATW [E11W], 1.56. In the case of TQHLPRECLPHNLGGYVKIDLATW [E11H], the protein stability index came to 1.48. With TQHLPRECLPPNLGGYVKIDLATW [E11P] the figure was 1.63; with TQHLPRECLPDNLGGYVKIDLATW [E11D], 1.84; with TQHLPRECLTENLGGYVKIDLATW [P10T], 1.62.

For the variant TQHLPRECLWENLGGYVKIDLATW [P10W], the protein stability index came out at 1.85.

Consider TQHLPRECLLENLGGYVKIDLATW [P10L], for which the protein stability index was determined as 1.55. Consider TQHLPRECLAENLGGYVKIDLATW [P10A], for which the protein stability index turned out to be 1.64.

Consider TQHLPRECLMENLGGYVKIDLATW [P10M], for which the protein stability index turned out to be 2.04. The value for TQHLPRECLCENLGGYVKIDLATW [P10C] was 1.8. The value for TQHLPRECLYENLGGYVKIDLATW [P10Y] was 1.68; that for TQHLPRECLSENLGGYVKIDLATW [P10S] was 2.49; that for TQHLPRECLVENLGGYVKIDLATW [P10V] was 1.82. The value for TQHLPRECLDENLGGYVKIDLATW [P10D] was 1.88; that for TQHLPRECLGENLGGYVKIDLATW [P10G] was 1.72. In the case of TQHLPRECLRENLGGYVKIDLATW [P10R], the protein stability index was found to be 2.24.

Consider TQHLPRECLNENLGGYVKIDLATW [P10N], for which the protein stability index turned out to be 2.23.

For the variant TQHLPRECLHENLGGYVKIDLATW [P10H], the protein stability index was 1.91.

As to TQHLPRECLEENLGGYVKIDLATW [P10E], the protein stability index is 2.44. With TQHLPRECLQENLGGYVKIDLATW [P10Q] the figure was 1.6; with TQHLPRECLIENLGGYVKIDLATW [P10I], 1.61.

As to TQHLPRECLFENLGGYVKIDLATW [P10F], the protein stability index was 1.97. With TQHLPRECLKENLGGYVKIDLATW [P10K] the figure was 1.77.

In the case of TQHLPRECLPETLGGYVKIDLATW [N12T], the protein stability index was 1.82.

With TQHLPRECLPEALGGYVKIDLATW [N12A], the protein stability index amounted to 2.41. With TQHLPRECLPEKLGGYVKIDLATW [N12K] the figure was 1.8; with TQHLPRECLPEVLGGYVKIDLATW [N12V], 2.03; with TQHLPRECLPEYLGGYVKIDLATW [N12Y], 2.52.

On to TQHLPRECLPEILGGYVKIDLATW [N12I], for which the protein stability index worked out at 1.79. With TQHLPRECLPEPLGGYVKIDLATW [N12P] the figure was 1.49; with TQHLPRECLPEWLGGYVKIDLATW [N12W], 1.51; with TQHLPRECLPEQLGGYVKIDLATW [N12Q], 1.91.

TQHLPRECLPESLGGYVKIDLATW [N12S]: the protein stability index was found to be 2.21. As to TQHLPRECLPEMLGGYVKIDLATW [N12M], the protein stability index came out at 1.96. With TQHLPRECLPEGLGGYVKIDLATW [N12G] the figure was 2; with TQHLPRECLPECLGGYVKIDLATW [N12C], 1.92. The value for TQHLPRECLPERLGGYVKIDLATW [N12R] was 1.53. Regarding TQHLPRECLPEFLGGYVKIDLATW [N12F], the protein stability index turned out to be 1.55. Take TQHLPRECLPEHLGGYVKIDLATW [N12H]: the protein stability index was determined as 1.92. TQHLPRECLPEELGGYVKIDLATW [N12E]: the protein stability index worked out at 3.02. Regarding TQHLPRECLPELLGGYVKIDLATW [N12L], the protein stability index stood at 1.76.
